B1: Tm1743 (Thermotoga maritima MSB8) (protein)
chain: MLYKELGRTGEEIPALGLGTWGIGGFETPDYSRDEEMVELLKTAIKMGYTHIDTAEYYGGGHTEELIGKAIKDFRREDLFIVSKVWPTHLRRDDLLRSLENTLKRLDTDYVDLYLIHWPNPEIPLEETLSAMAEGVRQGLIRYIGVSNFDRRLLEEAISKSQEPIVCDQVKYNIEDRDPERDGLLEFCQKNGVTLVAYSPLRRTLLSEKTKRTLEEIAKNHGATIYQIMLAWLLAKPNVVAIPKAGRVEHLRENLKATEIKLSEEEMKLLDSLG
B2: Tm1743 (Thermotoga maritima MSB8; W21S/W86E) (protein)
chain: MLYKELGRTGEEIPALGLGTSGIGGFETPDYSRDEEMVELLKTAIKMGYTHIDTAEYYGGGHTEELIGKAIKDFRREDLFIVSKVEPTHLRRDDLLRSLENTLKRLDTDYVDLYLIHWPNPEIPLEETLSAMAEGVRQGLIRYIGVSNFDRRLLEEAISKSQEPIVCDQVKYNIEDRDPERDGLLEFCQKNGVTLVAYSPLRRTLLSEKTKRTLEEIAKNHGATIYQIMLAWLLAKPNVVAIPKAGRVEHLRENLKATEIKLSEEEMKLLDSLG
B3: Tm1743 (Thermotoga maritima MSB8; W118E/W21L) (protein)
chain: MLYKELGRTGEEIPALGLGTLGIGGFETPDYSRDEEMVELLKTAIKMGYTHIDTAEYYGGGHTEELIGKAIKDFRREDLFIVSKVWPTHLRRDDLLRSLENTLKRLDTDYVDLYLIHEPNPEIPLEETLSAMAEGVRQGLIRYIGVSNFDRRLLEEAISKSQEPIVCDQVKYNIEDRDPERDGLLEFCQKNGVTLVAYSPLRRTLLSEKTKRTLEEIAKNHGATIYQIMLAWLLAKPNVVAIPKAGRVEHLRENLKATEIKLSEEEMKLLDSLG
B4: Tm1743 (Thermotoga maritima MSB8; W118H/W21L) (protein)
chain: MLYKELGRTGEEIPALGLGTLGIGGFETPDYSRDEEMVELLKTAIKMGYTHIDTAEYYGGGHTEELIGKAIKDFRREDLFIVSKVWPTHLRRDDLLRSLENTLKRLDTDYVDLYLIHHPNPEIPLEETLSAMAEGVRQGLIRYIGVSNFDRRLLEEAISKSQEPIVCDQVKYNIEDRDPERDGLLEFCQKNGVTLVAYSPLRRTLLSEKTKRTLEEIAKNHGATIYQIMLAWLLAKPNVVAIPKAGRVEHLRENLKATEIKLSEEEMKLLDSLG
B5: Tm1743 (Thermotoga maritima MSB8; W21S/W86N) (protein)
chain: MLYKELGRTGEEIPALGLGTSGIGGFETPDYSRDEEMVELLKTAIKMGYTHIDTAEYYGGGHTEELIGKAIKDFRREDLFIVSKVNPTHLRRDDLLRSLENTLKRLDTDYVDLYLIHWPNPEIPLEETLSAMAEGVRQGLIRYIGVSNFDRRLLEEAISKSQEPIVCDQVKYNIEDRDPERDGLLEFCQKNGVTLVAYSPLRRTLLSEKTKRTLEEIAKNHGATIYQIMLAWLLAKPNVVAIPKAGRVEHLRENLKATEIKLSEEEMKLLDSLG

substrate: CCOC(=O)C(=O)CCc1ccccc1; assay: purified protein; type: biochemical, Thermotoga maritima; settings: apparent, 0.25 mM NADPH, 50 mM potassium phosphate pH 6.5, 35 °C, 30 mM DMSO

B1 and B2 are within 1.5-fold of each other in Km: 1.10 ± 0.04 mM for the first, 1.25 ± 0.02 mM for the second.

Going from B3 to B4, the Km rises from 10.53 ± 0.10 mM to 15.98 ± 0.20 mM (1.5-fold).

For B5, the Km was 1.62 ± 0.02 mM.

First: B1
Second: B2
The kcat of the first is 1.9-fold higher: 1.96 ± 0.02 s⁻¹ for the first, 1.01 ± 0.01 s⁻¹ for the second.

B3 and B4 are the same in kcat: 1.98 ± 0.02 s⁻¹ for the first, 1.98 ± 0.01 s⁻¹ for the second.

Molecule B5 has a kcat of 0.84 ± 0.01 s⁻¹.

First: B1
Second: B2
The kcat/Km of the first is 2.2-fold higher: 1780 ± 30 M⁻¹ s⁻¹ for the first, 810 ± 20 M⁻¹ s⁻¹ for the second.

First: B3
Second: B4
The kcat/Km of the first is 1.6-fold higher: 190 ± 10 M⁻¹ s⁻¹ for the first, 120 ± 10 M⁻¹ s⁻¹ for the second.

For B5, the kcat/Km was 510 ± 20 M⁻¹ s⁻¹.

target: T1, Tm1743 (Thermotoga maritima, UniProt Q9X265); assay: X-ray crystal structure, […] Å; settings: co-crystallised, protein:NADP+ 1:1.5 molar; cofactor binding site
T1 construct: gene TM_1743

In the case of `NC(=O)c1ccc[n+]([C@@H]2O[C@H](COP(=O)(O)OP(=O)(O)OC[C@H]3O[C@@H](n4cnc5c(N)ncnc54)[C@H](OP(=O)(O)O)[C@@H]3O)[C@@H](O)[C@H]2O)c1` [NADP^+], the “X-ray crystal structure, 2.0 Å” value is reported as “we crystallized Tm1743 in complex with the cofactor NADP^+”.
